Kd data for three substances are collected here from patent publication US20240270828A1.

The experiment concerns the target SARS-CoV-2 S (SARS-CoV-2) (UniProt P0DTC2). In words: SPR Biacore T200, hmAb captured, S injected, 1:1 fit.
In the case of CC40.8 (antibody), the Kd was 6.69 nM.

Take CV3-25 (antibody): the Kd was 13.2 nM.

For S2P6 (antibody), the Kd was found to be 32 nM.
